# In a protein production outcome set (Wang et al. 2014):
# Test: label from the status in PepcDB records
row,Sequence,protein production
1,MLLEDRILKKWLLPFILSVLIAVDSMAQCIPVYKDSSMSVERRVTDLLGRMTLREKIAQLSHLHGYQLYNGQEVDYQKLRDAAGDISYGCIEGFNLTGENVRKAFHAIQKYMVEETRLGIPVFTVTESLHGSVHDGSTIFPQSVAVGSTFNLDLAYQMTKAIATELRSQGVIQTLSPGLDVVRDLRWGRVEESFGEDPWLVGQMGIAQVKGYIDGGISPMLKPFGPGGAPLGGLNLASVESGERDIRNIHIKPYEMAVRNTEVKAVMTSYNSWNGIPNSASSYLLTNILRNEWGFKGYVYSDWGAVAMLKDFQHTAKDDSEAAIQALTAGVDLEASSNCYWALEQLIEQGRFDEKYVDLAVGRILRVKFELGLFENPYQGADMPGVAMRTKEAVELSRRVADESIVLLKNENTLLPLNLNKIKSLAVIGPNANQVQFGDYTWSRSNKDGVTPLEGLKKRVGNKIKINYAAGCDLITDNKSGFDEAVAAVKASDMAVVFVGSSSASLARDYSDATCGEGFDLSSLDLTGVQEELVEEIYAIGKPVIVVLVTGKPFSISWIKEHIPAIVVQWYGGEKAGDAIADMLLGNINPSAKLPFSFPQSVGHLPVFYNHLPTDKGFYRRPGRPNEPGRDYVFSSPAPLWSFGHGLSYTTFEYLNAHYSAELLHPSDTLIVSVSLKNTGSVAGKEVVQLYVRDVVSSVVTPVKQLKAFSKPFLQPGEMQTVVLKLPIQELALYDLSMKKVVEEGEYEIQIGTASDDIRLRRTIFVGRQPVTSNSLGHNDFCMDEIVKNPGRKIKVAGCVRDVQATPISGIEIKSNYSGRTVISKEGGRYSILTVENDVLTVSAKGFETVNIKVNKQKDIDIKLNYSHD,failed
2,MLLKRSLPKMRWKSWVKPWQQLDWPLFCLPVGVSIFGGLMILSTELKQPVTDWWWHWLIAGIGVFIALFLARCRYDNLLQWHWITYVLTNISLITVMAAGTSAKGAQRWLTIGGFNVQPSEFAKIGVIITLAALLHKHTATRIEDVFRALAITAIPWLLVFVQPDLATSLVFGAIVLGMLYWANANPGWLLLMISPIIAAILFTMSWPLSTPIILFKEIFITPFGVAWAIGMAILGWLTLPWRRFNMGTIGAFSLNLLGGELGIFAWNHVLKEYQKNRLTAFINPEQDPLGSGYHLIQSRIAIGAGEMWGWGLFKGPMTQLNFVPEQHTDFIFSAIGEEFGLFGCLIVLFVFCLICWRLLHVAQTAKDNFGSLLAIGVLSMIIFQLVVNVGMNVGLAPVAGIPLPWMSYGRSAMLTNFIALGIVESVANFRQRQKYYF,failed
3,MLLLWLVVLVIGAAYLTHRRLAPLQILGIVAAYVLLMGIFSSAPGWLLALIWVVLALKIALVALPQWRRKLFTAPVFRWFQRTLPPMSQTEREAIDAGTVWWDGELFSGRPDWRTLLAYPAPKLTEEEQAFIDGPTEALCAMVSDWQIGQDLDLPPEAWAHIKQHGFFALIIPKEYGGKGFSAYAHSQVAMKLATRSGDLASTVMVPNSLGPAELLLHYGTDEQRNRYLPRLARGEEIPCFALTGPLAGSDAGAMPDTGIICKGQWQGEEVIGLRLNWEKRYITLGPVATLLGLAFKAYDPDHLLGEQEELGISLALIPTDTPGVEIGKRHLPLGAAFMNGPNSGKDVFVPLDFLIGGQAMLGKGWMMLMNCLSVGRSISLPAVGTGAAKYTSLVTGQYANIREQFNVPLAAFEGIQESLARIGGNAWLMDSARLLTAKAVDLGEKPSVLSAILKYHLTERGRECIQHAMDVHGGKGIIMGPNNYLGRNWQGAPIFITVEGANILSRNLMIFGQGAIRCHPFVLKEMALAGREDHDQALKEFDDLLMKHILFAAGNAASTLVYGLGLGRFERVPGDALSQGYFRALNRQAAAFAMMADLSMMLLGGALKRRERLSARLGDVLSYLYLASAALKRYHDQGSPEYLQPLLRWAMEESLGQTERALDRLLDNFPNRFVGCALRVLVFPFGRRHKGPGDELDAEVAELIGRRKGDPALEELLAGCYRPQAEHDPVADLQRASDLLEDTAQLSKALYQAVKEGKVQPAPGQSGIDAAVKAGVLQPDDGQRLHEAEQARRKVIDVDAFDKAQLLAVPGKVR,failed
4,MLLNKYFLANRNINFIVMALLFSSSYISASSFISGPSAVYKYGLSFILLATIQIPTTLIVFIIVGQRLNRESKKINAINIIDYIRHRYESDFLALMSGFVLIFFSMFLISAQLIGGAKLIEVFWGIDYVVGLTFFAFLVFIYVFFGGFKAVAYTDLIQGFLMLVSSVILFSKMLDLGGGINNLFKTATSSLDKSLLLPSNADLKPQYIISFWILIGIGILGQPQIINNFIAFKDENAIKFSLPISTFIISFLIVLMHLIGFFAIILFPDLSPNDKVVLNVALKVLNPFSCFMFFIGLLSAIMSTVDSNLLLITSVLIKSIFIYKEDLKEDVKIGRIIMISNIFFILIILIFSLFPPNFLFFINIFAFGALEVSFFPIIVFGLYLNFVSKIAAFASMFLGLIFYLSILFFGLNIWFFHPVFPSFFVSIFTFLVVNFFCKKNSKVC,failed
5,MLLRKGTVYVLVIRADLVNAMVAHARRDHPDEACGVLAGPEGSDRPERHIPMTNAERSPTFYRLDSGEQLKVWRAMEDADEVPVVIYHSHTATEAYPSRTDVKLATEPDAHYVLVSTRDPHRHELRSYRIVDGAVTEEPVNVVEQYLEHHHHHH,failed
6,MLLSMLRFEWRYYLRQPSFYVVSFLLFLMSFLSVASNNIQIGSGGEVMKNSPFSISQTLLIMGLISMFAVVNFVGSTAIRNHQHLMEELVYSKPLSPFAYQFGRFLGSFMVVLAVFAFVPIGLMLGSFMPWVDASRFGPFALSHYVIPYLQLSVPSLLLISCLFYAMASRFRSLMALYLTAVAMLVLYTLTGEMASQPQYRTIAALLDPFALRTFAEVTRYWTISEKNHQLLELSGLVLQNRALWLVIAGVLLAMSGIFSQPTLTKKRDKKSSKVEKIPDLVPLTALAMATLPNGRLQFWTRVKFEVRQVLLTAPFVVLGALTVFNLVGPMFDDFGWYGTSNWPLTQDMVDNIAGATGLLMVIVLIYYSAEIVWRERSSGMGDIVDSVPVSNLSFWASKLVAVLIVMTLLYMLAMGTTIVFQLIKGQSNLEISQYLIRLGFYYLLPLLMTSVLAFFLQVLSPNKYAGMGLFVAYYLTTFVMANWGFGHSLYNFGQSPSVSYSDMNGYGWGLLSHSLYMIYWGAFSVMLFVLGYGLYHRGPQQSLKTRLGLLGYQLGHNGKVIIAAALVIFVGSGSYLFYQTKVVNHYLTQEETTDLQADYEKTFKQYQGMPILVTTRVNANVDIFPEQRKIAAKVMFEWQNKSDKPIEKMLVQFPEHTQAETVKINIPNTHLGEFDRRYRNAWLTFSTPVQPGQLVVGNIELVRESTGVAESGFDLSVVENGTFINNFELLPLFGYQDGYELMDRHERQKRGLAEKNRANKLEDSRFYQQNFFGVDGDFIQFEATISTSMDQIALAPGYLQKQWQQDDRQYFHYLMDSPMVNFYAIISGRYQVEKIEHHGVAVEVYYHADHSWNVTRMVESVKDSIDYYTAAFGPYQHKQMRIMEFPGYRSFAQSFANTVPYSERIGFITDLRNEDNIDPVYYVTAHEVAHQWWGHQVGAADVQGSAVISESLSQYSALMVLEHKYGDKMIRKFLKYELDRYLRGRSAESIKEQPLLRSENQQYIHYQKGSVVMMAIKDVLGEAKLNANLKAFLTRYQYRNDPFPTTLDLVSYLKQGTDEVQSRFIDESFNDITLYDLRLTNAVAKTLPDGKTQLELTIYASRKVATGKGEEAEQPLDMSIDIGAFSADPDKLKDEKQILLLEKHHLVSGENKLTITLAEKPSYVGVDPFVKLIDRDARDNIFKL,failed
7,MLLVGVAIAFLHKYIVLVVLTSILITACQGDIIDNPNLESNVPQSTDCRVVEHAVGKTKICGKPKKIAVLEPKMLSLMLALDVQPAAYADAYLVNAPQFDNPSQQIPYLGKYVTSQPINLGDRSSPSLEALTLLKPDLILGLNYQDNQLFSAIAPTVFIDNEQNWQESIKIVAKALDSQKNIPSIITSQQQQLAKVRAQLESLVSTHPRVLNIVCSQLMDYIEVTYNGNTIEILEKIGFQPVFLPDIERKPGLRPQITLETLAQLDADIVIVNTWVDNWNGKSTYTVPLKELKQKWAKNPLLHNSQAWKEGRVYFVDYTLWGNVIGAPIANALILEQLPSLLLSNTLKP,failed
8,MLMNNRVNNMMRTYKFRIYISKSIQETIEEHLNICRYLYNYLLEQKTKNPKLNKGDTQKLITEHKKENPELKKVHSKALQMVNNKLWGNLKALGKLKQNGHKVGKLRFKSSKNHYKTIEYNQSGFKIKDNKLYLSKIGEISIKLHRKIKGEIKGVIIKKELTNKWFAFFQVEEEPKPLPKTNKVVGIDLGIDGYTIDSDGNKFENPKFIDETLDKIKKVQKNLSRKVRGSNNYKKTKLKLIKVYDKLNNQKNDFLHKLSRYYINNYDKIVLEDLNIKSMVENKKGQKTLNRHILDGSWKKFINLLLYKAEGAGREVILINPAYTSKKCFNCGCVVSSLRLSDRIFFCPNCGWKIDRDYNASLNILKSGLGESVVPAEGRPLLRVIPYIKVISGQVSPMNQEALPEGRGLRKPKGFRSTPSVREG,failed
